According to patent publication US20140234903:

T1: N-terminally His6-tagged PoyA (polytheonamide precursor peptide)
T1 chain: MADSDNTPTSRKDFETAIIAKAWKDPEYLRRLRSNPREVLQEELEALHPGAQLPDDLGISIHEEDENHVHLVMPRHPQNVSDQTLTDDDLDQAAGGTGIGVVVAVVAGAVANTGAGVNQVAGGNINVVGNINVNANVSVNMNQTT

T2: Nhis-PoyA121 (truncated variant of PoyA, residues 1-121, with the first 24 core amino acids)
T2 chain: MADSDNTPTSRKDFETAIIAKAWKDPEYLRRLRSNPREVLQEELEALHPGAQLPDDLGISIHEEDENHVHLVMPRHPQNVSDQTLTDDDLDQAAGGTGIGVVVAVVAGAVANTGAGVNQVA


Assays:
[1] = target: T1, N-terminally His6-tagged PoyA …
[2] = target: T2, Nhis-PoyA121 (truncated variant of …)

Protein | mass shift of PoyA (ESI-MS) on co-expression; modified residue by LC/MS/MS [1] | number of methylations on PoyA (MS, +14 mass units each) [1] | methylation of the C-terminal tryptic peptide 76-121 (LC-ESI/ECD-MS/MS) [2]
PoyF (LanM, N-terminal dehydratase domain) (protein) MMSSSSSREGDALAHAADPTRSIADDITCGLDSLGGPPTVCDAEHPVPFEELWLGFVAHAARALEPLIAPSLHAAVLHDPHGPLRSLLIELAEMGAPAAFELFALYRIREASAASVFGSVRGVESRDTYNAFVKHLATQQLSPLWDAFPALKPLLATRTNLFIAAMAELCQRWEADHVEIMSVFPELRGIGAPQRIRPGLSDAHGGGRTVTRLSFAGGEALFYKPRPVDMEWGCAQFVEWFNGQDHGMPPLRALSVLPRTDYGWMEAARPALCTHVDAVARFYHRAGMLLALADLFCGVDFHSENLIASGEYPVIVDLETLFHPLGPFESQGDALERTELLPRPIYCEDGAPYVICGLGVVPGKAVIELRRRGWININCDNMASCDVTVPWPVGGAVPRNKEGAAPSIATWSGEIVSGFSAMHVFFRTRRNELWSADGPIVQAFGGGRSRFLLRATRIYVELLRRAVQPQALAAHASSSHIFDRLARTGRGWDEIHRVERQALDRMDVPYFTMETTAQFVRGEGRTIHAFFATSGLHMARRRSEFIDDVILNDRAASIRNVLEQSSYSGEATLPDSRVQTDAGAGA | produced PoyA with a mass 18 Da less than expected (observed 17090 Da, calculated 17108 Da | – | –
PoyE (SAM-dependent methyltransferase (nucleophilic)) (protein) MTPRSLPTEPLAAPAAAALDAALRLLKEYLDDIGYHGIYKYLATANYYAASPSVFNASRPQSLEAFDRQIHEGPDDWMLARCLTTCAPCRLEALPPPARRVAEVLADVGLLVWNGNTLEQGGYQLISVFDRYILLDARIHFGGSQLHDVYIGPDSHLLLYYMPVEAIRPADHILDLCTGTGVIGLGLSRFSEHVVSTDIAPPALRLAHMNRALNNAEGRVSIRAENLQETLASDECFDLIACNPPYVAAPPELPTPLYAQGPDRDGLGYLRLLMERAPEKLNPGGQAMFVVDLIGDTHRPYYFDDLERIAKEQELFIEAFIDNRLKADGQLPAYKFLYARLFHGTPPEEIEQRMRNFIFDELHAYYYYMTTLRVRRRKPSGLRVLDRYRITSYDEFFQQS | – | a suite of peptides increasing by 14 mass units (0 to 8 modifications) | Near quantitative monomethylation was observed in this sample, with no evidence of multiple methylation. ECD fragmentation located the site of methylation exclusively to Asn112 (in full-length PoyA numbering)
